B1: crr dre oligo (dsDNA)
DNA 1: CCGTGAGGAGTGTGGTCTAGACCTCTAATCGGAACA
DNA 2: TGTTCCGATTAGAGGTCTAGACCACACTCCTCACGG
B2: crp cis-element oligo (dsDNA)
DNA 1: TGCGGCATCCTTGTGACAGATCACACTGTTTGGACT
DNA 2: AGTCCAAACAGTGTGATCTGTCACAAGGATGCCGCA

How the values were obtained:
[1] = molecular target: T1, DasR (SCO5231) (Streptomyces coelicolor, UniProt Q9K492 SEQ:1-254); assay: EMSA; no free probe left; 3 uM DasR, 10 nM probe, 1000-fold non-specific DNA; complex prevented by glucosamine-6-P (data not shown); details: tags: His6; chain copies: 2; label: fluorescent
T1 sequence: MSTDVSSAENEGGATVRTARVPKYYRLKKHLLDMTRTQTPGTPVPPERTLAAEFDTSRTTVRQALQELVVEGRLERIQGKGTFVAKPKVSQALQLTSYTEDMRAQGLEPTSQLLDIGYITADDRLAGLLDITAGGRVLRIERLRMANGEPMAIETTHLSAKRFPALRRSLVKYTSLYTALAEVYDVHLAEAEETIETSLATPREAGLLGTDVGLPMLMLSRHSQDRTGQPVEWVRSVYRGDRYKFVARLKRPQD
Description: (§1) Electromobility gel shift assay (EMSA). EMSAs were performed with fluorescent probes (10 nM) with an ALF express sequencer (Filee et al., 2001). Purified DasR (3 μM) and 1000-fold excess of non-specific DNA were used in the reaction mixture. Predicted cis-acting elements were taken from the promoter regions of actII-ORF4 (SCO5085; 5′-[…]-3′ (SEQ ID NO:530)), and redZ (SCO5881; 5′-[…]-3′ (SEQ ID NO:531)). Known cis-acting elements upstream of crr (SCO1390; […]-3′ (SEQ ID NO:532)), and crp (SCO3571; 5′-[…]-3′ (SEQ ID NO:533)) were used as positive and negative controls, respectively. The 16 nt dre sites are underlined.

[2] = molecular target: T1, DasR (SCO5231); assay: EMSA; negative control; details: tags: His6; chain copies: 2; label: fluorescent
Description: as §1

Binder | binding result [1] | binding result [2]
B1 | binds | 
B2 |  | no binding

Reference: patent US20110143394, “Methods and Means for Metabolic Engineering and Improved Product Formation by Micro-Organisms” (Universiteit Leiden, published 2011)
